{
  "source": "patent US20130097717A1",
  "about": "“COMPOSITIONS AND METHODS FOR RE-PROGRAMMING CELLS WITHOUT GENETIC MODIFICATION FOR TREATMENT OF CARDIOVASCULAR DISEASES” (VIVOSCRIPT, INC., priority 2010, published 2013)",
  "key": {"PBMC/mono- (T cells)": {"tested_on": "PBMC/mono- (T cells)", "test": "Reprogramming of T cells to Treg cells, flow cytometry of CD4 and CD25 in PBMC lacking CD14 monocytes", "assay_type": "cell-based, human", "settings": "10, 20 or 50 μg/ml", "procedure": "100 ml of healthy human blood was collected from a donor and the peripheral blood mononuclear cells (PBMCs) were isolated by density-gradient centrifugation using Histopaque-1077 (Sigma-Aldrich, St Louis, Mo.). CD14+ monocytes were removed by magnetic bead selection (Miltenyi Biotec, Auburn, Calif.). Briefly, […] PBMCs were incubated with 200 μL anti-CD14 microbeads (Miltenyi Biotec) in ice for 30 minutes. The cells were washed with cold 1×PBS with 2% FCS and centrifuged at 300 g for 10 minutes and then resuspended in 1×PBS with 2% FCS. The cell suspension was applied to the magnetic column and unbinding cells were passed through by washing 3 times with 1×PBS with 2% FCS. The PBMC/mono- were harvested by centrifuged at 300 g for 10 minutes.\nThe PBMC/mono- were cultured in 6-well plates (Becton Dickinson, Gaithersburg, Md.) supplemented with 10% FBS, nonessential amino acids, 2 mM glutamine, 1 mM sodium pyruvate, 25 mM HEPES, 200 units/ml penicillin, and streptomycin at 37° C. and 5% CO2. After 1 hour of culture, His6-Foxp3-11R (10 μg/ml, 20 μg/ml, or 50 μg/ml) was added to the cells. BSA (100 μg/ml) was added to another well as control. Same concentration of His6-Foxp3-11R or BSA was added after cultured for two days. After 5 days of culture, the cells were washed with PBS twice. The cells were re-suspended in 100 μL diluted and added rabbit anti-human CD25 for 90 minutes. […]"}, "PBMC (T cells)": {"tested_on": "PBMC (T cells)", "test": "Reprogramming of T cells to Treg cells, flow cytometry of CD4 and CD25 in PBMC", "assay_type": "cell-based, human", "settings": "10, 50 or 100 μg/ml", "procedure": "100 ml of healthy human blood was collected from a donor and the peripheral blood mononuclear cells (PBMCs) were isolated by density-gradient centrifugation using Histopaque-1077 (Sigma-Aldrich, St Louis, Mo.). The PBMC/mono^− were cultured in […] plates (Becton Dickinson, Gaithersburg, Md.) supplemented with 10% FBS, nonessential amino acids, 2 mM glutamine, 1 mM sodium pyruvate, 25 mM HEPES, 200 units/ml penicillin, and streptomycin at 37° C. and 5% CO2. After 1 hour of culture, Foxp3 (10 μg/ml, 50 μg/ml, 100 μg/ml) were added to the cells. BSA (100 μg/ml) was added to another well as control. Same concentration of the Foxp3 or BSA was added after cultured two days. Following 5 days of culture, the cells were washed with PBS twice. The cells were re-suspended in 100 μL diluted and added rabbit anti-human CD25 for 90 minutes. The cells were washed three time with cold 1×PBS supplied 2% FBS and then the conjugated-PE mouse anti-human CD4 as well as conjugated-FITC goat anti-rabbit IgG were added to the cells for 60 minutes in ice. Conjugated-PE mouse IgG and rabbit IgG were incubated with another group cells as Isotype control. The cells were washed with PBS for flow cytometric analysis using a Beckman Coulter FC500 cytometer with Cytomics CXP software (Beckman Coulter, Fullerton, Calif.) (FIGS. 14-17)."}, "[1]": {"settings": "added again after two days, 5 days of culture"}},
  "data": [
    {"molecule": "His6-Foxp3-11R: His6-tagged Foxp3 fused to 11R, SEQ ID NO: 33 (protein, transducible material) MGSSHHHHHHSSGLVPRGSHMPNPRPGKPSAPSLALGPSPGASPSWRAAPKASDLLGARGPGGTFQGRDLRGGAHASSSSLNPMPPSQLQLPTLPLVMVAPSGARLGPLPHLQALLQDRPHFMHQLSTVDAHARTPVLQVHPLESPAMISLTPPTTATGVFSLKARPGLPPGINVASLEWVSREPALLCTFPNPSAPRKDSTLSAVPQSSYPLLANGVCKWPGCEKVFEEPEDFLKHCQADHLLDEKGRAQCLLQREMVQSLEQQLVLEKEKLSAMQAHLAGKMALTKASSVASSDKGSCCIVAAGSQGPVVPAWSGPREAPDSLFAVRRHLWGSHGNSTFPEFLHNMDYFKFHNMRPPFTYATLIRWAILEAPEKQRTLNEIYHWFTRMFAFFRNHPATWKNAIRHNLSLHKCFVRVESEKGAVWTVDELEFRKKRSQRPSRCSNPTPGPESGGGGSPGRRRRRRRRRRR", "values": [
      {"measurement": "dose dependence of the increase of CD4+CD25+T cells", "setting": "PBMC/mono- (T cells)", "value": "protein-dose dependent"},
      {"measurement": "CD4+CD25+T cells (Treg cells)", "setting": "PBMC/mono- (T cells); [1]", "value": "dramatically increased"},
      {"measurement": "dose dependence of the increase of CD4+CD25+T cells", "setting": "PBMC (T cells)", "value": "protein-dose dependent"},
      {"measurement": "CD4+CD25+T cells (Treg cells)", "setting": "PBMC (T cells); [1]", "value": "dramatically increased"}
    ]}
  ]
}
